Reference: patent US20260265379A1

B1: bsAb053 (bispecific antibody, not shown: small tags and cut ends)
heavy (part 1 of 2): QVQLVQSGVEVKKPGASVKVSCKASGYTFTNYYMYWVRQAPGQGLEWMGGINPSNGGTNFNEKFKNRVTLTTDSSTTTAYMELKSLQFDDTAVYYCARRDYRFDMGFDYWGQGTTVTVSS
heavy (part 2 of 2): GGGGSGGGGSGGGGSGGGGSQVQLVQSGAEVKKPGASVKLSCKASGYIFTRYYMYWVKQRPGQGLEWIGEINPNNGGTKFNEKFKNRATLTVDKSISTAYMELSRLRSDDTAVYYCSREDDYDGTPFAMDYWGQGTLVTVSSGGGGSGGGGSGGGGSGGGGSDIQMTQSPSSLSASVGDRVTITCHASQNINVWLSWYQQKPGKAPKLLIYKASNLHTGVPSRFTGSGSGTDFTFTISSLQPEDIATYYCQQGQTYPYTFGQGTKLEIK
heavy: B1 heavy (part 1 of 2)
light: EIVLTQSPATLSLSPGERATLSCRASKGVSTSGYSYLHWYQQKPGQAPRLLIYLASYLESGVPARFSGSGSGTDFTLTISSLEPEDFAVYYCQHSRDLPLTFGGGTKVEIKRTVAAPSVFIFPPSDEQLKSGTASVVCLLNNFYPREAKVQWKVDNALQSGNSQESVTEQDSKDSTYSLSSTLTLSKADYEKHKVYACEVTHQGLSSPVTKSFNRGEC
B2: bsAb011 (bispecific antibody)
heavy: QVQLVQSGAEVKKPGASVKLSCKASGYIFTRYYMYWVKQRPGQGLEWIGEINPNNGGTKFNEKFKNRATLTVDKSISTAYMELSRLRSDDTAVYYCSREDDYDGTPFAMDYWGQGTLVTVSSASTKGPSVFPLAPSSKSTSGGTAALGCLVKDYFPEPVTVSWNSGALTSGVHTFPAVLQSSGLYSLSSVVTVPSSSLGTQTYICNVNHKPSNTKVDKRVEPKSCDKTHTCPPCPAPEFEGGPSVFLFPPKPKDTLMISRTPEVTCVVVDVSHEDPEVKFNWYVDGVEVHNAKTKPREEQYNSTYRVVSVLTVLHQDWLNGKEYKCKVSNKALPASIEKTISKAKGQPREPQVYTLPPSREEMTKNQVSLTCLVKGFYPSDIAVEWESNGQPENNYKTTPPVLDSDGSFFLYSKLTVDKSRWQQGNVFSCSVMHEALHNHYTQKSLSLSPG
light: not shown
B3: bsAb001 (bispecific antibody, human IgG1, kappa)
heavy: QVQLVQSGAEVKKPGASVKLSCKASGYIFTRYYMYWVKQRPGQGLEWIGEINPNNGGTKFNEKFKNRATLTVDKSISTAYMELSRLRSDDTAVYYCSREDDYDGTPFAMDYWGQGTLVTVSSASTKGPSVFPLAPSSKSTSGGTAALGCLVKDYFPEPVTVSWNSGALTSGVHTFPAVLQSSGLYSLSSVVTVPSSSLGTQTYICNVNHKPSNTKVDKRVEPKSCDKTHTCPPCPAPEFEGGPSVFLFPPKPKDTLMISRTPEVTCVVVDVSHEDPEVKFNWYVDGVEVHNAKTKPREEQYNSTYRVVSVLTVLHQDWLNGKEYKCKVSNKALPASIEKTISKAKGQPREPQVYTLPPSREEMTKNQVSLTCLVKGFYPSDIAVEWESNGQPENNYKTTPPVLDSDGSFFLYSKLTVDKSRWQQGNVFSCSVMHEALHNHYTQKSLSLSPGGGGGSGGGGSGGGGSGGGGSQVQLVQSGVEVKKPGASVKVSCKASGYTFTNYYMYWVRQAPGQGLEWMGGINPSNGGTNFNEKFKNRVTLTTDSSTTTAYMELKSLQFDDTAVYYCARRDYRFDMGFDYWGQGTTVTVSSGGGGSGGGGSGGGGSGGGGSEIVLTQSPATLSLSPGERATLSCRASKGVSTSGYSYLHWYQQKPGQAPRLLIYLASYLESGVPARFSGSGSGTDFTLTISSLEPEDFAVYYCQHSRDLPLTFGGGTKVEIK
light: not shown
B4: bsAb059 (bispecific antibody)
heavy: QVQLVQSGVEVKKPGASVKVSCKASGYTFTNYYMYWVRQAPGQGLEWMGGINPSNGGTNFNEKFKNRVTLTTDSSTTTAYMELKSLQFDDTAVYYCARRDYRFDMGFDYWGQGTTVTVSSASTKGPSVFPLAPSSKSTSGGTAALGCLVKDYFPEPVTVSWNSGALTSGVHTFPAVLQSSGLYSLSSVVTVPSSSLGTQTYICNVNHKPSNTKVDKRVEPKSCDKTHTCPPCPAPEFEGGPSVFLFPPKPKDTLMISRTPEVTCVVVDVSHEDPEVKFNWYVDGVEVHNAKTKPREEQYNSTYRVVSVLTVLHQDWLNGKEYKCKVSNKALPASIEKTISKAKGQPREPQVYTLPPSREEMTKNQVSLTCLVKGFYPSDIAVEWESNGQPENNYKTTPPVLDSDGSFFLYSKLTVDKSRWQQGNVFSCSVMHEALHNHYTQKSLSLSPG
light: QVQLVQSGAEVKKPGASVKLSCKASGYIFTRYYMYWVKQRPGQGLEWIGEINPNNGGTKFNEKFKNRATLTVDKSISTAYMELSRLRSDDTAVYYCSREDDYDGTPFAMDYWGQGTLVTVSSGGGGSGGGGSGGGGSGGGGSDIQMTQSPSSLSASVGDRVTITCHASQNINVWLSWYQQKPGKAPKLLIYKASNLHTGVPSRFTGSGSGTDFTFTISSLQPEDIATYYCQQGQTYPYTFGQGTKLEIKGGGGSGGGGSGGGGSGGGGSEIVLTQSPATLSLSPGERATLSCRASKGVSTSGYSYLHWYQQKPGQAPRLLIYLASYLESGVPARFSGSGSGTDFTLTISSLEPEDFAVYYCQHSRDLPLTFGGGTKVEIKRTVAAPSVFIFPPSDEQLKSGTASVVCLLNNFYPREAKVQWKVDNALQSGNSQESVTEQDSKDSTYSLSSTLTLSKADYEKHKVYACEVTHQGLSSPVTKSFNRGEC
B5: bsAb060 (bispecific antibody)
heavy: B4 heavy
light: DIQMTQSPSSLSASVGDRVTITCHASQNINVWLSWYQQKPGKAPKLLIYKASNLHTGVPSRFTGSGSGTDFTFTISSLQPEDIATYYCQQGQTYPYTFGQGTKLEIKGGGGSGGGGSGGGGSGGGGSQVQLVQSGAEVKKPGASVKLSCKASGYIFTRYYMYWVKQRPGQGLEWIGEINPNNGGTKFNEKFKNRATLTVDKSISTAYMELSRLRSDDTAVYYCSREDDYDGTPFAMDYWGQGTLVTVSSGGGGSGGGGSGGGGSGGGGSEIVLTQSPATLSLSPGERATLSCRASKGVSTSGYSYLHWYQQKPGQAPRLLIYLASYLESGVPARFSGSGSGTDFTLTISSLEPEDFAVYYCQHSRDLPLTFGGGTKVEIKRTVAAPSVFIFPPSDEQLKSGTASVVCLLNNFYPREAKVQWKVDNALQSGNSQESVTEQDSKDSTYSLSSTLTLSKADYEKHKVYACEVTHQGLSSPVTKSFNRGEC
B6: bsAb003 (bispecific antibody, human IgG1, kappa)
heavy: QVQLVQSGAEVKKPGASVKLSCKASGYIFTRYYMYWVKQRPGQGLEWIGEINPNNGGTKFNEKFKNRATLTVDKSISTAYMELSRLRSDDTAVYYCSREDDYDGTPFAMDYWGQGTLVTVSSASTKGPSVFPLAPSSKSTSGGTAALGCLVKDYFPEPVTVSWNSGALTSGVHTFPAVLQSSGLYSLSSVVTVPSSSLGTQTYICNVNHKPSNTKVDKRVEPKSCDKTHTCPPCPAPEFEGGPSVFLFPPKPKDTLMISRTPEVTCVVVDVSHEDPEVKFNWYVDGVEVHNAKTKPREEQYNSTYRVVSVLTVLHQDWLNGKEYKCKVSNKALPASIEKTISKAKGQPREPQVYTLPPSREEMTKNQVSLTCLVKGFYPSDIAVEWESNGQPENNYKTTPPVLDSDGSFFLYSKLTVDKSRWQQGNVFSCSVMHEALHNHYTQKSLSLSPGGGGGSGGGGSGGGGSGGGGSEVQLVESGGGLVQPGGSLRLSCAASGFTFSRYWMSWVRQAPGKGLEWVANIKQDGSEKYYVDSVKGRFTISRDNAKNSLYLQMNSLRAEDTAVYYCAREGGWFGELAFDYWGQGTLVTVSSGGGGSGGGGSGGGGSGGGGSEIVLTQSPGTLSLSPGERATLSCRASQRVSSSYLAWYQQKPGQAPRLLIYDASSRATGIPDRFSGSGSGTDFTLTISRLEPEDFAVYYCQQYGSLPWTFGQGTKVEIK
light: not shown
B7: bsAb035 (bispecific antibody, not shown: small tags and cut ends)
heavy (part 1 of 2): QVQLVQSGAEVKKPGASVKLSCKASGYIFTRYYMYWVKQRPGQGLEWIGEINPNNGGTKFNEKFKNRATLTVDKSISTAYMELSRLRSDDTAVYYCSREDDYDGTPFAMDYWGQGTLVTVSS
heavy (part 2 of 2): GGGGSGGGGSGGGGSGGGGSEVQLVESGGGLVQPGGSLRLSCAASGFTFSRYWMSWVRQAPGKGLEWVANIKQDGSEKYYVDSVKGRFTISRDNAKNSLYLQMNSLRAEDTAVYYCAREGGWFGELAFDYWGQGTLVTVSSGGGGSGGGGSGGGGSGGGGSEIVLTQSPGTLSLSPGERATLSCRASQRVSSSYLAWYQQKPGQAPRLLIYDASSRATGIPDRFSGSGSGTDFTLTISRLEPEDFAVYYCQQYGSLPWTFGQGTKVEIK
heavy: B7 heavy (part 1 of 2)
light: not shown
B8: bsAb040 (bispecific antibody, not shown: small tags and cut ends)
heavy (part 1 of 2): B7 heavy (part 1 of 2)
heavy (part 2 of 2): GGGGSGGGGSGGGGSGGGGSEIVLTQSPGTLSLSPGERATLSCRASQRVSSSYLAWYQQKPGQAPRLLIYDASSRATGIPDRFSGSGSGTDFTLTISRLEPEDFAVYYCQQYGSLPWTFGQGTKVEIKGGGGSGGGGSGGGGSGGGGSEVQLVESGGGLVQPGGSLRLSCAASGFTFSRYWMSWVRQAPGKGLEWVANIKQDGSEKYYVDSVKGRFTISRDNAKNSLYLQMNSLRAEDTAVYYCAREGGWFGELAFDYWGQGTLVTVSS
heavy: B7 heavy (part 1 of 2)
light: not shown
B9: bsAb048 (bispecific antibody, not shown: small tags and cut ends)
heavy 1: EIVLTQSPGTLSLSPGERATLSCRASQRVSSSYLAWYQQKPGQAPRLLIYDASSRATGIPDRFSGSGSGTDFTLTISRLEPEDFAVYYCQQYGSLPWTFGQGTKVEIKGGGGSGGGGSGGGGSGGGGSEVQLVESGGGLVQPGGSLRLSCAASGFTFSRYWMSWVRQAPGKGLEWVANIKQDGSEKYYVDSVKGRFTISRDNAKNSLYLQMNSLRAEDTAVYYCAREGGWFGELAFDYWGQGTLVTVSSGGGGSGGGGSGGGGSGGGGSQVQLVQSGAEVKKPGASVKLSCKASGYIFTRYYMYWVKQRPGQGLEWIGEINPNNGGTKFNEKFKNRATLTVDKSISTAYMELSRLRSDDTAVYYCSREDDYDGTPFAMDYWGQGTLVTVSS
heavy 2: B7 heavy (part 1 of 2)
light: not shown

These binders were tested against BTN3A expressed at the cell surface (human), O00481 (assay: cell-based or functional assay).
Chain of BTN3A expressed at the cell surface (human), O00481 (O00481 30-513): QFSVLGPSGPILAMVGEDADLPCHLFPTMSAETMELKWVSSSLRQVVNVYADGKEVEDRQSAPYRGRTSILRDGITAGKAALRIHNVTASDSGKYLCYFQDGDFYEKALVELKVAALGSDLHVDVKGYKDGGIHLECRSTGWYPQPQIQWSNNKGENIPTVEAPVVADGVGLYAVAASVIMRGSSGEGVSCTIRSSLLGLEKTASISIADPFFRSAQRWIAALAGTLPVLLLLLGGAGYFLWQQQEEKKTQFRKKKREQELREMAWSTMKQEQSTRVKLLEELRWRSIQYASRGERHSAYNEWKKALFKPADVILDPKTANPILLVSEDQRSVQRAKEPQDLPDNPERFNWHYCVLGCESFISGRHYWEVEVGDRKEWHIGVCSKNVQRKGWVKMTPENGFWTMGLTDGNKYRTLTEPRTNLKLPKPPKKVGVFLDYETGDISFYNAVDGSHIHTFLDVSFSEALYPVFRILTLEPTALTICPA

Jurkat-Vy9Vo2 TCR MOP activation at 0.5 nM (fold-change to medium)	Jurkat-Vy9Vo2 TCR MOP activation at 5 nM (fold-change to medium)	Binder
1.2	1.1	B1
12.2	9.8	B2
6.5	4.5	B3
1.1	1.1	B4
1.1	1.1	B5
13.6	10.7	B6
14.1	11.2	B7
10.4	8.8	B8
8.2	7.9	B9
